Biological target: T1, H1N1 HA (A/New Caledonia/20/1999), wild type (Influenza A virus A/New …, UniProt Q6WG00, strain)
T1 construct: also called H1 wt; source: provided by D. Lingwood
Experiment: ELISA

Row | Binder | binding result
1 | H5-Ab4 (antibody, V domains shown) VH: EVQLVESGGGAVQPGRSLRLSCAVSGFTFSSYGMNWVRQAPGKGLEWVAVISYDGSNTYYADSVKGRFTISRDDSKNTLFLQMNSLRADDTAVYYCAKDFQLRLLRYFDWLSSPFDHWGQGTLVTVSS VL: DIQLTQSPGTLSLSPGERATLSCRASQSIRSNFLAWYQQTPGQGPRLLIYGASSRATGIPDRFSGSGSGTDFTLTISGLEPEDFAVYYCQQYASSPQTFGQGTKVEIK | binds
2 | H5-Ab2 (antibody, V domains shown) VH: EVQLVQSGAEVKKPGSSVKVSCRSSGGPFRSNAISWVRQAPGQGLEWMGGIIAVFGTVEYAQKFQGRVTITADDSRSTVYMELRSLRSDDTAFYYCASAHGYHNYGSRGYFVSWGQGTLVTVSS VL: DIVMTQSPGTLSLSPGERATLSCRASQSVSSNYLAWYQQKLGQPPRLLIYGASSRATGIPDRFSGSGSGTDFTLTISRLEPEDYAVYYCQQYGSSPHTFGQGTKVEIK | binds

Source: publication PMC5551578 (The Journal of Experimental Medicine, 2017)
